Source: patent US20170306005A1 (NASCIENT, published 2017)
Changes are numbered by the printed parent chain. Names may count otherwise.

T1: rat tenascin-C rCd4-His-FBG (rat, UniProt P05540 207-392, limits assumed)
T1 construct: domain: domains 3 and 4; C-terminal FBG fusion; also called Rat TNC; rat TNC rCD4-His-FBG; not shown: 6His tag
T1 sequence (chain (part 1 of 2)): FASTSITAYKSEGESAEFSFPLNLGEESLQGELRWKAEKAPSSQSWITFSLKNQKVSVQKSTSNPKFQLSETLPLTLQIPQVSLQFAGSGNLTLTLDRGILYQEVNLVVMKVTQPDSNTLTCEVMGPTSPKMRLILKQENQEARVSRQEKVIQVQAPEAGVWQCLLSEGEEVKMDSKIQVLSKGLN
T1 sequence (chain (part 2 of 2)): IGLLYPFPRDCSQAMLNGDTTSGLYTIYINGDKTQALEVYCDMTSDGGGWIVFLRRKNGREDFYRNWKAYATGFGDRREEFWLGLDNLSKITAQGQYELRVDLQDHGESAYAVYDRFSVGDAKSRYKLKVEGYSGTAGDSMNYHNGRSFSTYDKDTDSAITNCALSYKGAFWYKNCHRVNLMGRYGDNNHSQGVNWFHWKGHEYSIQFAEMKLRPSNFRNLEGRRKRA

T2: mouse tenascin-C rCd4-His-FBG (rat; mouse, UniProt P05540 207-392, limits assumed)
T2 construct: domain: domains 3 and 4; C-terminal FBG fusion; biotinylated in the ELISA screen; also called Mu TNC; mouse TNC rCd4-His-FBG; not shown: 6His tag
T2 sequence (chain (part 1 of 2)): T1 sequence (chain (part 1 of 2))
T2 sequence (chain (part 2 of 2)): T1 sequence (chain (part 2 of 2)) with T72A

T3: human tenascin-C rCd4-His-FBG (rat; human, UniProt P05540 207-392, limits assumed)
T3 construct: domain: domains 3 and 4; C-terminal FBG fusion; biotinylated in the ELISA and HTRF screens; also called Hu TNC; human TNC rCd4-His-FBG; not shown: 6His tag
T3 sequence (chain (part 1 of 2)): T1 sequence (chain (part 1 of 2))
T3 sequence (chain (part 2 of 2)): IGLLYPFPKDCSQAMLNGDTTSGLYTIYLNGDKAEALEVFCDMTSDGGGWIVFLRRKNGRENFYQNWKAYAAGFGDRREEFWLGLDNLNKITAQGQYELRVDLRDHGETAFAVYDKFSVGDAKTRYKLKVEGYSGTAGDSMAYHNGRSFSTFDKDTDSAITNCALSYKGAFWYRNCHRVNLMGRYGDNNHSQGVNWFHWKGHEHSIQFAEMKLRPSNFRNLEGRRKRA

T4: dog tenascin-C rCD4-His-FBG (rat; dog, UniProt P05540 207-392, limits assumed)
T4 construct: domain: domains 3 and 4; C-terminal FBG fusion; also called Dog TNC; not shown: 6His tag
T4 sequence (chain (part 1 of 2)): T1 sequence (chain (part 1 of 2))
T4 sequence (chain (part 2 of 2)): T1 sequence (chain (part 2 of 2)) with I29L, T34A, T72A, S89H, Q104R, E108K, S109T, S124T, N142A, Y152F

T5: human tenascin-R rCd4-His-FBG (rat; human, UniProt P05540 207-392, limits assumed)
T5 construct: domain: domains 3 and 4; C-terminal FBG fusion; also called Hu TNR; human TNR rCd4-His-FBG; not shown: 6His tag
T5 sequence (chain (part 1 of 2)): T1 sequence (chain (part 1 of 2))
T5 sequence (chain (part 2 of 2)): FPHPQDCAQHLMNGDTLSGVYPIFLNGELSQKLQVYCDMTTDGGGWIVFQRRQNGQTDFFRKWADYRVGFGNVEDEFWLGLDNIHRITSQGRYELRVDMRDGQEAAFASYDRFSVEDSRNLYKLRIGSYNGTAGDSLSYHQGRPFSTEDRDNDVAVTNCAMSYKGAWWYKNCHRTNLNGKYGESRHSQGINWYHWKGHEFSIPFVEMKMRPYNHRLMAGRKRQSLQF

B1: 165_13_B1 human IgG4 (antibody, V domains shown)
VH: QVQLVESGGGLVQPGRSLRLSCAASGFTFDDYAMHWVRQAPGKGLEWVSGISGSGGSTYYADSVKGRFTISRDNAKNSLYLQMNSLRAEDTALYYCAKVMSSMEDAFDIWGQGTMVTVSS
VL: DIQMTQSPASLPTPVGDRVTITCRASQYIQGFLNWYQQKPGKAPKLLIYDASNLETGVPSRFSGSGSGTDFTLTISSLQPEDFATYYCQQSYSTPQTFGQGTKVDIKR
notes: human IgG4 with hinge S241P
B2: 2A5 human IgG4 (antibody, V domains shown)
VH: EVRLVQSGAEVKKPGASVKVSCKVSGYTLTELSMHWVRQAPGKGLEWMGGFDPEDGETIYAQKFQGRVTMTEDTSTDTAYMELSSLRSEDTAVYYCATAQKETYALTYWGQGTLVTVSS
VL: B1 VL with P14S, K45R, D50A, N53T, E55Q, T56D, S67Y, Q96W, D105E
notes: human IgG4 with hinge S241P; also called 2A5 parent
B3: 165_13_D1 human IgG4 (antibody, V domains shown)
VH: B1 VH with V99G, M100T, S101R, S102G, M103E, E104G, A106T
VL: B1 VL
notes: human IgG4 with hinge S241P
B4: 161_01_C09 human IgG4 (antibody, V domains shown)
VH: B2 VH with K101L, E102P, T103Y, Y104L, L106Q
VL: B1 VL with P14S, K45R, D50A, N53T, E55Q, T56D, S67Y, Q96W, D105E
notes: human IgG4 with hinge S241P; also called Antibody 161 01 C09 (derived from 2A5)
B5: 162_02_D3 human IgG4 (antibody, V domains shown)
VH: B2 VH with K101I, E102H, T103P, Y104L, A105G
VL: B1 VL with P14S, K45R, D50A, N53T, E55Q, T56D, S67Y, Q96W, D105E
notes: human IgG4 with hinge S241P; also called Antibody 162 02 D3 (derived from 2A5)
B6: 161_01_A12 human IgG4 (antibody, V domains shown)
VH: B2 VH with K101P, E102T, T103A, Y104L, L106N
VL: B1 VL with P14S, K45R, D50A, N53T, E55Q, T56D, S67Y, Q96W, D105E
notes: human IgG4 with hinge S241P; also called Antibody 161 01 A12 (derived from 2A5)
B7: 165_13_D4 human IgG4 (antibody, V domains shown)
VH: B1 VH with V99G, M100T, S101V, S102G, M103E, E104G, A106T
VL: B1 VL
notes: human IgG4 with hinge S241P
B8: 161_01_F6 human IgG4 (antibody, V domains shown)
VH: B2 VH with T103N, Y104I, L106N, T107R, Y108H
VL: B1 VL with P14S, K45R, D50A, N53T, E55Q, T56D, S67Y, Q96W, D105E
notes: human IgG4 with hinge S241P; also called 160_01_F6; Antibody 161 01 F6, also known as 160 01 F6 (derived from 2A5)
B9: 162_02_H5 human IgG4 (antibody, V domains shown)
VH: B2 VH
VL: DIQMTQSPASLPTSVGDRVTITCRASQYIQGFLNWYQQKPGKAPRLLIYAASTLQDGVPSRFSGSGYGTDFTLTISSLQPEDFATYYCQNQYTGPWTFGQGTKVEIKR
notes: human IgG4 with hinge S241P; also called Antibody 162 02 H5 (derived from 2A5)
B10: 162_02_C6 human IgG4 (antibody, V domains shown)
VH: B2 VH
VL: B9 VL with T93A
notes: human IgG4 with hinge S241P; also called Antibody 162 02 C6 (derived from 2A5)
B11: 161_01_H10 human IgG4 (antibody, V domains shown)
VH: B2 VH with K101P, E102V, T103W, Y104A, A105P, L106G
VL: B9 VL with N90Q, Q91S, T93S, G94T
notes: human IgG4 with hinge S241P; also called Antibody 161 01 H10 (derived from 2A5)
B12: 162_02_F3 human IgG4 (antibody, V domains shown)
VH: B2 VH
VL: B9 VL with T93R
notes: human IgG4 with hinge S241P; also called Antibody 162 02 F3 (derived from 2A5)
B13: 162_02_C3 human IgG4 (antibody, V domains shown)
VH: B2 VH
VL: B9 VL with Q89M, N90Q, Q91H, T93D
notes: human IgG4 with hinge S241P; also called Antibody 162 02 C3 (derived from 2A5)
B14: 165_13_B6 human IgG4 (antibody, V domains shown)
VH: B1 VH with V99G, M100Q, S101K, S102G, M103E, E104G, A106T
VL: B1 VL
notes: human IgG4 with hinge S241P
B15: 160_01_G2 human IgG4 (antibody, V domains shown)
VH: B2 VH with A99Y, Q100T, K101L, E102D, T103N, Y104M
VL: B9 VL with N90Q, Q91S, T93S, G94T
notes: human IgG4 with hinge S241P; also called Antibody 160 01 G2 (derived from 2A5)

target: T1, rat tenascin-C rCd4-His-FBG; assay: SPR, captured purified IgG4, 37 C
Description: (§1) Detailed kinetic parameters were evaluated for the 9 prioritised IgG4 antibodies. Binding characteristics were determined for interaction with human, rat and dog TNC rCD4-His-FBG, and human TNR rCD4-His-FBG. Kinetic assays followed essentially the same protocols as for the off-rate determinations described above, with some modifications as follows. […] Purified anti-FBG IgG4 was diluted to a concentration of 3.5 nM in PBS, pH 7.4, 0.05% Tween-20 and injected into FC2 at a flow rate of 10 μl/min, 60 s contact time. […] Antigens were prepared by doubling dilution in PBS, pH 7.4, 0.05% Tween-20 (highest concentration 100 nM except mouse rCD4-His-FBG which was 7 nM). Assays were performed at 37° C. (30 μl/min, 120 s contact time; mouse rCD4-His-FBGFBG 10 μl/min, 60 s contact time), with both the flow cell and injection chamber equilibrated to this temperature. As before, kinetic parameters were determined by reference cell subtraction and fitting the sensogram experimental data assuming a 1:1 interaction using BIAevaluation software (GE, BR-1005-97).

Row | Kd | koff | kon | Binder
1 | 2.2 nM | 0.00684 s⁻¹ | 3.11e+06 M⁻¹ s⁻¹ | B1

target: T2, mouse tenascin-C rCd4-His-FBG; assay: SPR, captured purified IgG4, 37 C
Description: as §1

Row | Kd | koff | kon | Binder
2 | 0.96 nM | 0.000706 s⁻¹ | 733000 M⁻¹ s⁻¹ | B1
3 | 123 nM | 0.0106 s⁻¹ | 86800 M⁻¹ s⁻¹ | B2

target: T3, human tenascin-C rCd4-His-FBG; assay: SPR, captured purified IgG4, 37 C
Description: as §1

Row | Kd | koff | kon | Binder
4 | 0.26 nM | 0.00188 s⁻¹ | 7.27e+06 M⁻¹ s⁻¹ | B1
5 | 23.8 nM | 0.0323 s⁻¹ | 1.36e+06 M⁻¹ s⁻¹ | B2

target: T4, dog tenascin-C rCD4-His-FBG; assay: SPR, captured purified IgG4, 37 C
Description: as §1

Row | Kd | koff | kon | Binder
6 | 2.85 nM | 0.0187 s⁻¹ | 6.55e+06 M⁻¹ s⁻¹ | B1

target: T5, human tenascin-R rCd4-His-FBG; assay: SPR off-rate screen, captured IgG4 supernatant, 25 C
Description: (§2) The 31 scFv of interest were sub-cloned into a human IgG4 expression vector for generation of antibodies as human IgG4 with a hinge-stabilising mutation (S241P; Angal et al, 1993). […] Briefly, surface plasmon resonance (SPR) experiments were performed using a BIAcore T100 instrument and followed the protocol according to the Human antibody capture kit protocol (GE, BR-1008-39). For off-rate screening, 10,000 response units (RU) of anti-human Fc IgG (GE, BR-1008-39) was immobilised on flow-cells (FC1 and FC2) of a Series 5 CM5 dextran sensor chip (BR-1005-30) using EDC/NHS cross-linking chemistry according to the amine coupling kit protocol (GE, BR-1000-50). Culture supernatants containing expressed IgG4 were diluted 1:2 with 2×PBS-T and injected into FC2 (flowrate 5 μl/min, 60 s contact time) to enable antibody capture at 25° C. […] A fixed concentration of antigen (15 nM of human and mouse TNC rCd4-His-FBG and 100 nM of human TNR rCd4-His-FBG) was injected with a flow-path via FC 1 (reference flow cell) and FC 2 (antibody capture flow cell), with a flow rate of 30 μl/min, and the association and dissociation phases measured over 1 and 5 min time periods, respectively. Regeneration of the binding surface employed 3M MgCl₂ with 30 s contact time. Off rates were determined by reference cell subtraction and fitting the sensogram experimental data assuming a 1:1 interaction using BIAevaluation software (GE, BR-1005-97).

Row | koff | Binder
7 | 0.0043 s⁻¹ | B3
8 | 0.00029 s⁻¹ | B4
9 | 0.0064 s⁻¹ | B5
10 | 0.0042 s⁻¹ | B6
11 | 0.004 s⁻¹ | B7
12 | 0.0025 s⁻¹ | B8
13 | 0.082 s⁻¹ | B9
14 | 0.028 s⁻¹ | B10
15 | 0.0091 s⁻¹ | B11
16 | 0.088 s⁻¹ | B12
17 | 0.635 s⁻¹ | B13
18 | 0.0037 s⁻¹ | B14
19 | 0.001 s⁻¹ | B15

target: T2, mouse tenascin-C rCd4-His-FBG; assay: as above
Description: as §2

Row | koff | Binder
20 | 1.7e-06 s⁻¹ | B1
21 | 3.9e-06 s⁻¹ | B3
22 | 2.3e-07 s⁻¹ | B4
23 | 1.06e-06 s⁻¹ | B5
24 | 4.3e-06 s⁻¹ | B6
25 | 3.7e-06 s⁻¹ | B7
26 | 0.00171 s⁻¹ | B8
27 | 0.000167 s⁻¹ | B9
28 | 0.00024 s⁻¹ | B10
29 | 1.9e-06 s⁻¹ | B11
30 | 0.00033 s⁻¹ | B12
31 | 0.002 s⁻¹ | B13
32 | 6.9e-06 s⁻¹ | B14
33 | 1.39e-05 s⁻¹ | B15

target: T3, human tenascin-C rCd4-His-FBG; assay: as above
Description: as §2

Row | koff | Binder
34 | 1.5e-06 s⁻¹ | B1
35 | 0.0091 s⁻¹ | B2
36 | 1.4e-07 s⁻¹ | B3
37 | 1.17e-07 s⁻¹ | B4
38 | 3.9e-07 s⁻¹ | B5
39 | 1.3e-06 s⁻¹ | B6
40 | 6.2e-07 s⁻¹ | B7
41 | 2.8e-06 s⁻¹ | B8
42 | < 1e-05 s⁻¹ | B9
43 | 5.3e-06 s⁻¹ | B10
44 | 2.5e-05 s⁻¹ | B11
45 | < 1e-05 s⁻¹ | B12
46 | 1.49e-06 s⁻¹ | B13
47 | 5.6e-06 s⁻¹ | B14
48 | 1.25e-05 s⁻¹ | B15
